The values that follow come from paper PMC5050560.

A word on the stoichiometry N: it is the number of molecules, sites or subunits per partner or assembly.

The target in experiment [1] is cdPadR1^W94A (Clostridium difficile R20291). Description: SEC-MALS. (In gel filtration, larger molecules generally elute earlier.)
Experiment [2] concerns the target cdPadR1 (PadR family transcription regulator, product of CDR20291_0991, Clostridium difficile R20291) (Clostridium difficile R20291). Description: SEC.
Experiment [3] shares this target. Description: SEC-MALS.

The substance “cdPadR1^W94A (from UniProt A0A9R0CDW8 1-109) (natural protein)” showed a stoichiometry N in experiment [1] of 2.

As to “cdPadR1 (PadR family transcription regulator, product of CDR20291_0991, Clostridium difficile R20291) (from UniProt A0A9R0CDW8 1-109) (natural protein)”, the stoichiometry N in experiment [2] and in experiment [3] was 2 in each case.
